{
  "source": "patent US7732592B2",
  "about": "“ALK protein tyrosine kinase, cells and methods embodying and using same” (New York University, priority 2003, dated 2010)",
  "molecules": {"B1": {"name": "A5: short hairpin oligonucleotide against cytoplasmic domain of ALK, SEQ ID NO: 5; in pSUPER vector (nucleic acid)", "chain": "GATCCCCGGGCGAGCTACTATAGAAATTCAAGAGATTTCTATAGTAGCTCGCCCTTTTTGGAAA"}},
  "key": {"NPM-ALK [1]": {"tested_on": "NPM-ALK", "test": "Co-transfection of pSUPER shRNA vectors with Pallino-NPM-ALK in HEK-293T cells, Western blot", "format": "cell-based", "details": "HEK-293T co-transfected with Pallino-NPM-ALK; after 48 hrs from transfection", "description": "FIG. 8. Selection of anti-ALK shRNA. […] HEK-293T were co-transfected with Pallino NPM-ALK (2 μg) and one of six different pSUPER vectors carrying shRNA specific for ALK sequences (pS-A1-6)(8 μg). […] (pS-p53) (B) ALK5 (A5) inhibits ATIC-ALK protein expression. HEK-293T were co-transfected with Pallino ATIC-ALK and pSUPER-ALK shRNA interfering sequences as above. Expression of ATIC-ALK protein was determined by Western blot analysis as described above. (C) ALK5 (A5) inhibits ALK receptor (ALK-R) protein expression. HEK-293T cells were co-transfected with Pallino ALK-R and pSUPER-ALK shRNA interfering sequences as above.\n(§1) Transfections of HEK-293T, GP-293, and MEF Tet-Off cells were performed with Effectene reagent (Qiagen, Valencia, Calif., USA), according to the manufacturer's instructions.\nFor Western Blot analysis, cells were lysed (50 mM Tris-HCl, pH 7.4, 150 mM NaCl, 0.1% Triton X-100, 5 mM EDTA, 1 mM Na3VO4, and 1 mM phenylmethyl sulfonyl fluoride and protease inhibitors). Total protein lysates (20 μg) were electrophoresed in SDS-PAGE gel and transferred onto nitrocellulose membranes. The filters were first blocked (5% low fat milk in PBS with 0.1% Tween 20; 1 h at RT), and then incubated with the primary antibodies for 1 hour at room temperature. […]"}, "ATIC-ALK": {"tested_on": "ATIC-ALK", "test": "Co-transfection of pSUPER shRNA vectors with Pallino ATIC-ALK in HEK-293T cells, Western blot", "format": "cell-based", "details": "transfected HEK-293T cells", "description": "(§2) FIG. 8. Selection of anti-ALK shRNA. […] HEK-293T were co-transfected with Pallino NPM-ALK (2 μg) and one of six different pSUPER vectors carrying shRNA specific for ALK sequences (pS-A1-6)(8 μg). Cells were lysed 72 hours post-transfection and immunoblotted with the indicated antibodies. −=no transfection; A pSUPER-shRNA carrying a p53 specific sequence was used a unrelated control. (pS-p53) (B) ALK5 (A5) inhibits ATIC-ALK protein expression. HEK-293T were co-transfected with Pallino ATIC-ALK and pSUPER-ALK shRNA interfering sequences as above. Expression of ATIC-ALK protein was determined by Western blot analysis as described above. (C) ALK5 (A5) inhibits ALK receptor (ALK-R) protein expression. HEK-293T cells were co-transfected with Pallino ALK-R and pSUPER-ALK shRNA interfering sequences as above.\nas §1\n(§3) For Western Blot analysis, cells were lysed (50 mM Tris-HCl, pH 7.4, 150 mM NaCl, 0.1% Triton X-100, 5 mM EDTA, 1 mM Na3VO4, and 1 mM phenylmethyl sulfonyl fluoride and protease inhibitors). Total protein lysates (20 μg) were electrophoresed in SDS-PAGE gel and transferred onto nitrocellulose membranes. […]"}, "ALK receptor (ALK-R)": {"tested_on": "ALK receptor (ALK-R)", "test": "Co-transfection of pSUPER shRNA vectors with Pallino ALK-R in HEK-293T cells, Western blot", "format": "cell-based", "details": "transfected HEK-293T cells", "description": "as §2, §1, §3"}, "NPM-ALK [2]": {"tested_on": "NPM-ALK", "test": "NPM-ALK protein expression in MEF NPM-ALK Tet-Off cells after retroviral infection, Western blot", "format": "cell-based", "description": "FIG. 9. Anti-ALK siRNA inhibits NPM-ALK-mediated transformation of MEF cells. (A) Suppression of NPM-ALK expression leads to down-regulation of known downstream targets of ALK. MEF NPM-ALK Tet-Off cells were infected with pSRG-A5 virus, transduction efficiency was assessed 72 hours post-infection by FACS analysis of GFP (40%). pSRG-A5-infected cells were further enriched by selection with 1 mg/ml puromycin for 1 week (90%). NPM-ALK expression was inhibited by doxycyclin withdrawn. Protein expression was evaluated culturing (72 hr) semi-confluent cells in absence of doxycyclin. (B) shRNA A-5 expression leads to G0/G1 cell cycle arrest. DNA content analysis was performed in cells grown to confluence and kept in 0.2% serum medium for 72 hours in presence of absence of doxycyclin. Cells were then listed and analysed by Western blotting with indicated antibodies. […] Tumor growth was monitored weekly for 4 weeks. […]\nRetroviral supernatants were produced by co-transfection of GP-293 packaging cells with pSRGAx and pVSV-G (Clontech, Palo Alto, Calif., USA); virus-containing supernatants were collected at 48, 72 and 90 hours, filtrated and concentrated by centrifugation. […] Transfection and infection efficiencies were calculated using the percentage of GFP positive cells, identified using fluorescence microscopy (Leica IM RE2) or flow cytometry (FACSCalibur, BD Biosciences, San Josè, Calif., USA). […]"}, "MEF-NPM-ALK cells": {"tested_on": "MEF-NPM-ALK cells", "test": "Morphology of MEF-NPM-ALK cells after infection", "format": "cell-based", "excerpt": "Since NPM-ALK expression in MEF cells leads to relevant morphological changes including cell elongation, bipolarized formations and loose plate attachment, the effect of inhibition of NPM-ALK expression on the phenotype of these cells was then studied. […] Furthermore, highly enriched GFP^+, puromycin resistant pSRG-A5MEF-NPM-ALK cells injected into athymic Nu/Nu mice (1×10^6 cells) grew poorly compared to control infected cells (FIG. 9 D)."}, "TS cells": {"tested_on": "TS cells", "test": "Cell death of sorted GFP-positive TS cells by microscopy", "format": "cell-based, human", "details": "sorted TS cells (>95% GFP), 24 hr after cell sorting", "description": "FIG. 11. Anti-ALK siRNA inhibits growth and induces cell death in TS cells. ShRNA A5 leads ALK+ ALCL cells to cell death. Human TS cells were transduced with pSRG or pSRG-A5 constructs, and […], GFP-positive cells were sorted using MoFo sorter. (A) Highly enriched GFP+ cells (>95%) were evaluated (24 hours after sorting) using a light or fluorescent inverted microscope, (bright field: left panels). 5×10^3/well cells were plated (96-well plate) and the percentage of alive cells was calculated overtime (B). Total number of live cells was also calculated at day 3, 4 and 6 after sorting (C).\nTo study whether ALK siRNA could promote cell death, highly enriched A5-GFP-positive TS cells by cell sorting (>95% GFP) were evaluated by microscopy. […] These findings were confirmed with enumeration of viable cells by trypan blue exclusion (FIG. 11B) and proliferating cell quantitation using total cell counts (FIG. 11C)."}},
  "data": [
    {"molecule": "B1", "values": [
      {"measurement": "down-regulation of the protein level of NPM-ALK", "setting": "NPM-ALK [1]", "value": "> 90", "unit": "%"},
      {"measurement": "expression of ATIC-ALK", "setting": "ATIC-ALK", "value": "successfully abrogate expression"},
      {"measurement": "expression of ALK receptor", "setting": "ALK receptor (ALK-R)", "value": "successfully abrogate expression"},
      {"measurement": "NPM-ALK protein expression", "setting": "NPM-ALK [2]; MEF NPM-ALK Tet-Off after doxycyclin withdrawal, proportional to percentage of GFP positive cells", "value": "significant down-regulation"},
      {"measurement": "NPM-ALK level in MEF-NPM-ALK cells after infection", "setting": "NPM-ALK [2]; MEF-NPM-ALK cells", "value": "very low levels"},
      {"measurement": "cellular morphology (transformed phenotype)", "setting": "MEF-NPM-ALK cells", "value": "regained their normal pre-transformed cellular features"},
      {"measurement": "cells with shrunken, picnotic nuclei lacking detectable GFP expression", "setting": "TS cells", "value": "> 50", "unit": "%"}
    ]}
  ]
}
